From patent publication US20260242489A1 (HUAHUI HEALTH, published 2026) come the findings set out here.

The target in test [1] is T1, mEGFR ECR (His6-Avi-tagged) (mouse, UniProt Q01279 25-644).
T1 construct: also called mouse EGFR; not shown: His6-Avi tag
Put plainly: IgG1 ELISA at pH 6.5, mEGFR ECR against hEGFR ECR. On the technique in general: In an ELISA, binding on a coated surface is turned into a signal by an enzyme label.

Test [2] has as its target T2, hEGFR ECR-His6-Avi-Biotin (human, UniProt P00533 25-642, biotinylated on the Avi tag using BirA ligase).
T2 construct: also called WT hEGFR ECR; human EGFR ECD; not shown: His6-Avi tag
Put plainly: ELISA: hEGFR ECR on plate, IgG1 titrated, anti-hFc-HRP; pH 6.5 [table].

Test [3] concerns the target T2, hEGFR ECR-His6-Avi-Biotin. Put plainly: ELISA: hEGFR ECR on plate, IgG1 titrated, anti-hFc-HRP; pH 7.4 [table].
Test [4] addresses T1, mEGFR ECR (His6-Avi-tagged). The test is described as follows: ELISA: mEGFR ECR on plate, IgG1 titrated, anti-hFc-HRP; pH 6.5 [table].
Test [5] shares this target. Put plainly: ELISA: mEGFR ECR on plate, IgG1 titrated, anti-hFc-HRP; pH 7.4 [table].
Test [6] addresses T2, hEGFR ECR-His6-Avi-Biotin. The test is described as follows: ELISA: hEGFR ECR on plate, IgG1 titrated, anti-hFc-HRP; pH 6.5 [table]. The source holds these as a separate data set.
For test [7], the target named is T2, hEGFR ECR-His6-Avi-Biotin. The test is described as follows: ELISA: hEGFR ECR on plate, IgG1 titrated, anti-hFc-HRP; pH 7.4 [table]. The source holds these as a separate data set.
In test [8] the target is T2, hEGFR ECR-His6-Avi-Biotin. Put plainly: ELISA: G5V2 IgG1 coated on plate, antigen titrated, HRP-labeled His-Tag antibody; pH 7.4.
Another test has as its target hEGFR ECR H370A (human, UniProt P00533 25-642). The description is as above.
For test [9], the target named is T2, hEGFR ECR-His6-Avi-Biotin. The description is as above. The source holds these as a separate data set.
The target of test [10] is T2, hEGFR ECR-His6-Avi-Biotin. The test is described as follows: ELISA: hEGFR ECR on plate, IgG1 titrated, anti-hFc-HRP; EC50 at pH 7.4 over EC50 at pH 6.5 [table].
Test [11] deals with T1, mEGFR ECR (His6-Avi-tagged). Put plainly: ELISA: mEGFR ECR on plate, IgG1 titrated, anti-hFc-HRP; EC50 at pH 7.4 over EC50 at pH 6.5 [table].
Test [12] has as its target T2, hEGFR ECR-His6-Avi-Biotin. Put plainly: ELISA: hEGFR ECR on plate, IgG1 titrated, anti-hFc-HRP; EC50 at pH 7.4 over EC50 at pH 6.5 [table]. This is another data set of the same source.
Test [13] has as its target human EGFR domain III (human) (UniProt P00533). Put plainly: ELISA: antibody coated on plate, hEGFR domain III titrated (Log[Ag] nM), detected through its His tag; pH not given [table].
In test [14] the target is T2, hEGFR ECR-His6-Avi-Biotin. Put plainly: ELISA: antibody coated on plate, hEGFR ECR titrated (Log[Ag] nM), detected through its His tag; pH not given [table].
The target in test [15] is T2, hEGFR ECR-His6-Avi-Biotin. Put plainly: phage display Fab ELISA on hEGFR ECR.
The target in test [16] is T2, hEGFR ECR-His6-Avi-Biotin. The test is described as follows: phage display Fab ELISA on hEGFR ECR, pH 6.5.
The target of test [17] is T2, hEGFR ECR-His6-Avi-Biotin. The test is described as follows: phage display Fab ELISA on hEGFR ECR, pH 6.5 and pH 7.4.
For test [18], the target named is T2, hEGFR ECR-His6-Avi-Biotin. The test is described as follows: phage ELISA: hEGFR ECR on plate, phage display Fab titrated, anti-M13-HRP; EC50 at pH 7.4 over EC50 at pH 6.5 [table].

Like-named read-outs stand apart in the source and are kept apart here.

B1: G5V2 (human IgG1 form) (antibody, V domains shown)
VH: QVQLVQSGAEVKRPGSSVKVSCKASGGISDGSAISWVRQAPGQGLEWMGGIYFFNGNTNYAQKFQGRVTITADESTSTAYMELSSLRSEDTAVYYCARDSSLGYYDYFDYWGQGTLVTVSS
VL: QPVLTQPPSVSAAPGQTARITCGGNNIGEKYVQWYQQRPGQAPVLVIYYDDDRPSGIPERFSGSNSGNTAALTINSVEAGDEADYYCQAWDDYDPVVFGGGTQLTVLG
For orientation: EC50 means the midpoint of the concentration-response curve. One may read the EC50 (read off the curve) as the midpoint of the concentration-response curve. The low end stands for a more potent agent, the high end for a less potent agent. For B1, the “EC50 ratio, mEGFR/hEGFR (pH 6.5)” value in test [1] came to 1.23. Further, the EC50 in test [2] amounted to 0.03 nM; in test [3] it was 0.031 nM; in [4], 0.037 nM; in [5], 0.046 nM; in test [6], 0.502 nM; in test [7] it was 0.595 nM. In addition, the EC50 amounted to 2.37 nM in [13] and 1.24 nM in test [14]. Further, the “EC50 (read off the curve)” value was ~2 nM in test [8], ~3 nM with hEGFR ECR H370A and ~3 nM in [9]. Also, the “EC50 ratio (pH 7.4/pH 6.5)” value in test [10] amounted to 1.03; in test [11], 1.24; in [12], 1.19.

B2: G5V2 Y32E (phage display Fab form) (Fab, V domains shown)
VH: B1 VH
VL: QPVLTQPPSVSAAPGQTARITCGGNNIGEKEVQWYQQRPGQAPVLVIYYDDDRPSGIPERFSGSNSGNTAALTINSVEAGDEADYYCQAWDDYDPVVFGGGTQLTVL
notes: Y32 is Kabat numbering
Turning to B2, the “fold higher binding affinity over G5V2 Y32D” value in test [15] is ~3 fold. Also, the “fold decrease of binding affinity at pH 6.5 against G5V2” value in [16] is ~8 fold. For the same molecule, the “fold higher pH-dependent binding over WT G5V2” value in test [17] was ~13 fold. The “EC50 ratio (pH 7.4/pH 6.5)” value in test [18] was found to be 15.6.
